# Test results published in US20100015126A1, “Methods of Binding of Cross-Beta Structures By Chaperones” (priority 2006, published 2010).
# Assays:
# human BiP [1] = target: T1, human BiP (Homo sapiens, UniProt P11021); experiment: ELISA: binding of BiP-FLAG-His to immobilized (misfolded) protein ligands; details: ligands coated at 5 μg/ml; 6BB peptides and oxLDL 50 μg/ml
# T1 construct: The human BiP gene except the signal peptide encoding region was obtained from Geneart (Germany); linker […]; made in house; host or cells: HEK 293E cells, transient transfection, PABC674 vector; secreted into the medium
# Outline: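 Ligands were coated at 5 μg/ml (50 μg/ml for 6BB# peptides and oxLDL) in 50 mM NaHCO3 pH 9.6, blocked, then incubated in triplicate with BiP-FLAG-His dilution series for 1 h at room temperature. Bound BiP was detected with peroxidase anti-FLAG M2 and TMB, stopped after 5 min and read at 450 nm. Buffer-only and chaperone-omitted background signals were subtracted.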
# [2] = Transmission electron microscopy (TEM); assay type: physicochemical; details: for TEM: 2.5 mg/ml peptide stocks; for Appearance on TEM images: magnification 10K
# Protocol: Transmission Electron Microscopy (TEM)
# TEM images were collected using a Jeol 1200 EX transmission electron microscope (Jeol Ltd., Tokyo, Japan) at an excitation voltage of 80 kV. For each sample, the formvar and carbon-coated side of a 100-mesh copper or nickel grid was positioned on a 5 μl drop of protein solution for 5 minutes. Afterwards, it was positioned on a 100 μl drop of PBS for 2 minutes, followed by three 2-minute incubations with a 100 μl drop of distilled water. The grids were then stained for 2 minutes with a 100 μl drop of 2% (m/v) methylcellulose with 0.4% uranyl acetate pH 4. Excess fluid was removed by streaking the side of the grids over filter paper, and the grids were subsequently dried under a lamp. Samples were analysed at a magnification of 10K.
# human BiP [3] = target: T1, human BiP; experiment: ELISA: inhibition of BiP binding to crossbeta structure with tPA; details: threefold diluted supernatant; 10 mM ε-amino caproic acid; no competitor
# From the text: The threefold diluted cell supernatants were applied to the ELISA plate in duplicates and BiP binding was subsequently measured as described above. Coat efficiency was checked with specific anti-AGE antibody, anti-albumin antibody and anti-Hb antibody.
# T1 sequence (P11021 19-654): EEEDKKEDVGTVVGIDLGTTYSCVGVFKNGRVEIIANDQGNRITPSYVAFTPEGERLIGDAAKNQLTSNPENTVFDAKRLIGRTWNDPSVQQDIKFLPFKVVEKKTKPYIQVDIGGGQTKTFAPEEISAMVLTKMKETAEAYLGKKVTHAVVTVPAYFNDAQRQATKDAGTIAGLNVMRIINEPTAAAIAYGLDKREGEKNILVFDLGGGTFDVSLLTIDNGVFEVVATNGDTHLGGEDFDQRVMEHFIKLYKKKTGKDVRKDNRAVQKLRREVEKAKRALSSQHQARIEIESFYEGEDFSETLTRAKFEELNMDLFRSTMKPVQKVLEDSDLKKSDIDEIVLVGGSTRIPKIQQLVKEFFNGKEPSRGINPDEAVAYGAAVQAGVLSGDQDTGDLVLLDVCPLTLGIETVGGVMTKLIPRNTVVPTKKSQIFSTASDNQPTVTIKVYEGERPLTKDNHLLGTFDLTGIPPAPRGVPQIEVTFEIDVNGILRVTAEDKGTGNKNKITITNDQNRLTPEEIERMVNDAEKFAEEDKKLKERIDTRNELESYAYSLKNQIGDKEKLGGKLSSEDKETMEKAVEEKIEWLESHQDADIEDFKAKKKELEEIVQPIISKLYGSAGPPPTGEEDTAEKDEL
Substance,Binding of concentration series of BiP to coated ligand (human BiP [1]),TEM [2],Binding of BiP to coated ligand (human BiP [3]),Appearance on TEM images [2]
"GSNKGAIIGLM [6BB6, Human Aβ (25-35)]",has been established,Thin aggregated,,
AGEYYAAL [6BB7],did not bind,Very few small,,
native BSA: non-modified bovine serum albumin control,did not bind,,hardly,
HbAGE: human haemoglobin glycated with glucose-6-phosphate for 75 weeks,has been established,,,non-fibrillar amorphous aggregates
Hb: non-modified human haemoglobin control,did not bind,,some binding,
"KLVFFAE [6BB12, Human Aβ16-22]",no BiP binding was observed,Large dense clusters,,
BSA-AGE,has been established,,binds,non-fibrillar amorphous aggregates
